Results from patent US20260091122A1.

Legend:
[1] = target: membrane of human macrophages differentiated in vitro in the presence of M-CSF from CD14+ monocytes; assay: flow cytometry on human macrophages, AF647 label, 37 C
[2] = target: membrane of human CD14+ monocytes isolated from the peripheral blood of a healthy subject; assay: flow cytometry on human monocytes, AF647 label, 37 C

MFI [1]: 1640 MFI
Ratio (MFI against that of the isotype control) [1]: 1
MFI [2]: 265 MFI
Ratio (MFI against that of the isotype control) [2]: 1
Substance: non-specific antibody corresponding to an isotype control coupled to the Alexa Fluor (AF) 647 fluorochrome
